Test results published in US20030040044A1.

Legend:
[1] = target: αVβ3 integrin on human cells (human) (UniProt P06756); experiment: saturation binding of 125-I ReoPro to A375S2 cells, Bmax, n = 6
[2] = target: αVβ3 integrin on human cells (human) (UniProt P06756); experiment: saturation binding of 125-I ReoPro to A375S2 cells (express αvβ3 and αvβ5; ReoPro showed no binding to αvβ5), n = 3
[3] = target: αVβ3 integrin on human cells (human) (UniProt P06756); experiment: saturation binding of 125-I ReoPro to M21 cells (express αvβ3 and αvβ5; ReoPro showed no binding to αvβ5), n = 3
[4] = target: αVβ3 integrin on human cells (human) (UniProt P06756)
[5] = target: αVβ3 integrin on human cells (human) (UniProt P06756); remark: listed apart in the source
[6] = target: αVβ3 integrin on human cells (human) (UniProt P06756); experiment: saturation binding of 125-I ReoPro to M21 cells, Bmax, n = 7

Receptors per cell (receptors per cell) [1]: 370000
Kd [2]: 22 nM
Kd [3]: 10 nM
Adhesion (%) of HUVEC to fibrin (% of adhesion without antibody) [4]: 35.8
Adhesion (%) of HUVEC to fibrinogen (% of adhesion without antibody) [4]: 8.7
Adhesion (%) of HUVEC to gelatin (% of adhesion without antibody) [4]: 2.5
Adhesion (%) of HUVEC to vitronectin (% of adhesion without antibody) [4]: 54.9
Adhesion (%) of A375S.2 cells to fibrin (% of adhesion without antibody) [5]: 12.9
Adhesion (%) of A375S.2 cells to fibrinogen (% of adhesion without antibody) [5]: 6.5
Adhesion (%) of A375S.2 cells to gelatin (% of adhesion without antibody) [5]: 6
Adhesion (%) of A375S.2 cells to vitronectin (% of adhesion without antibody) [5]: 38.1
Receptors per cell (receptors per cell) [6]: 660000
B1: ReoPro (Fab, INN chains, looked up, V domains shown)
VH: EVQLQQSGTVLARPGASVKMSCEASGYTFTNYWMHWVKQRPGQGLEWIGAIYPGNSDTSYIQKFKGKAKLTAVTSTTSVYMELSSLTNEDSAVYYCTLYDGYYVFAYWGQGTLVTVSA
VL: EIVLTQSPVTLSVTPGDSVSLSCRASRDISNNLHWFQQTSHESPRLLIKYASQSMSGIPSRFSGSGSGTDFTLSINSVETEDFGMYFCQQTNSWPYTFGGGTKLEIK
modifications: Fab 125I label in some assays
